The target in data set [1] is AbnA-D2 (D2), his-tagged arabinase family protein (Geobacillus stearothermophilus T-6) (UniProt B3EYN2). The settings on record: 5'-amino; Selection buffers listed (assay buffer and temperature not stated in material): AGR2 137 mM NaCl, 20 mM KCl, 10 mM Na2HPO4, 2 mM KH2PO4 pH 7.4; 6H7 50 mM …; cited from earlier work.
The target is the same in data set [2]. In words: porous silicon RIFTS (EOT) biosensor. To be noted: 5'-amino; Selection buffers listed (assay buffer and temperature not stated in material): AGR2 137 mM NaCl, 20 mM KCl, 10 mM Na2HPO4, 2 mM KH2PO4 pH 7.4; 6H7 50 mM ….

Results on one sequence are retold here after PMC7589614.

Like-named read-outs stand apart in the source and are kept apart here.

Usually Kd stands for the constant that tells how readily two partners part at equilibrium. For the sequence “GCTATGGGTGGTCTGGTTGGGATTGGCCCCGGGAGCTGGC [anti-his tag aptamer 6H7]”, the Kd in data set [1] is 4.6 µM; in data set [2] it was 29 µM.
